B1: MukF FN2 (domain or fragment)
chain: MSEFSQTVPELVAWARKNDFSISLPVDRLSFLLAVATLNGERLDGEMSEGELVDAFRHVSDAFEQTSETIGVRANNAINDMVRQRLLNRFTSEQAEGNAIYRLTPLGIGITDYYIRQREFSTLRLSMQLSIVAGELKRAADAAEEGGDEFHWHRNVYAPLKYSVAEIFDSIDLTQRLMDEQQQQVKDDIAQLLNKDWRAAISSCELLLSETSGTLRELQDTLEAAGDKLQANLLRIQDATMTHDDLHFVDRLVFDLQSKLDRIISWGQQSIDLWIGYDRHVHKFIRT
modifications: not checked
B2: MukB (natural protein)
chain: MIERGKFRSLTLINWNGFFARTFDLDELVTTLSGGNGAGKSTTMAAFVTALIPDLTLLHFRNTTEAGATSGSRDKGLHGKLKAGVCYSMLDTINSRHQRVVVGVRLQQVAGRDRKVDIKPFAIQGLPMSVQPTQLVTETLNERQARVLPLNELKDKLEAMEGVQFKQFNSITDYHSLMFDLGIIARRLRSASDRSKFYRLIEASLYGGISSAITRSLRDYLLPENSGVRKAFQDMEAALRENRMTLEAIRVTQSDRDLFKHLISEATNYVAADYMRHANERRVHLDKALEFRRELHTSRQQLAAEQYKHVDMARELAEHNGAEGDLEADYQAASDHLNLVQTALRQQEKIERYEADLDELQIRLEEQNEVVAEAIERQQENEARAEAAELEVDELKSQLADYQQALDVQQTRAIQYNQAIAALNRAKELCHLPDLTADCAAEWLETFQAKELEATEKMLSLEQKMSMAQTAHSQFEQAYQLVVAINGPLARNEAWDVARELLREGVDQRHLAEQVQPLRMRLSELEQRLREQQEAERLLADFCKRQGKNFDIDELEALHQELEARIASLSDSVSNAREERMALRQEQEQLQSRIQSLMQRAPVWLAAQNSLNQLSEQCGEEFTSSQDVTEYLQQLLEREREAIVERDEVGARKNAVDEEIERLSQPGGSEDQRLNALAERFGGVLLSEIYDDVSLEDAPYFSALYGPSRHAIVVPDLSQVTEHLEGLTDCPEDLYLIEGDPQSFDDSVFSVDELEKAVVVKIADRQWRYSRFPEVPLFGRAARESRIESLHAEREVLSERFATLSFDVQKTQRLHQAFSRFIGSHLAVAFESDPEAEIRQLNSRRVELERALSNHENDNQQQRIQFEQAKEGVTALNRILPRLNLLADDSLADRVDEIRERLDEAQEAARFVQQFGNQLAKLEPIVSVLQSDPEQFEQLKEDYAYSQQMQRDARQQAFALTEVVQRRAHFSYSDSAEMLSGNSDLNEKLRERLEQAEAERTRAREALRGHAAQLSQYNQVLASLKSSYDTKKELLNDLQRELQDIGVRADSGAEERARIRRDELHAQLSNNRSRRNQLEKALTFCEAEMDNLTRKLRKLERDYFEMREQVVTAKAGWCAVMRMVKDNGVERRLHRRELAYLSADDLRSMSDKALGALRLAVADNEHLRDVLRMSEDPKRPERKIQFFVAVYQHLRERIRQDIIRTDDPVEAIEQMEIELSRLTEELTSREQKLAISSRSVANIIRKTIQREQNRIRMLNQGLQNVSFGQVNSVRLNVNVRETHAMLLDVLSEQHEQHQDLFNSNRLTFSEALAKLYQRLNPQIDMGQRTPQTIGEELLDYRNYLEMEVEVNRGSDGWLRAESGALSTGEAIGTGMSILVMVVQSWEDESRRLRGKDISPCRLLFLDEAARLDARSIATLFELCERLQMQLIIAAPENISPEKGTTYKLVRKVFQNTEHVHVVGLRGFAPQLPETLPGTDEAPSQAS

Legend:
MukF FN2 (E. coli) [1] = test: SEC-MALS; Superose 6 10/300 GL or Superose 12 10/300; 50 mM HEPES pH 7.5, 100 mM NaCl, 1 mM DTT, 1 mM EDTA; 20 °C; mixtures at stated monomer:dimer molar ratios; some runs with 1 mM ATP
[2] = target: fluorescently labelled FN2, FN10, FN3 and FC2 (E. coli); test: fluorescence correlation spectroscopy (FCS) + fluorescence polarisation; range of Kds told for the four Cy5-labelled MukF fragments together (FN2, FN10 by FCS; FN3, FC2 by FPA); MukB titrated
MukF FN2 (E. coli) [3] = target: MukF FN2 (E. coli)
MukF FC2 (E. coli) = conditions: scale: % of the maximal ATPase obtained with MukF

Row | Binder | stoichiometry N (MukF FN2 (E. coli) [1]) | Kd [2] | MukB ATPase (steady state, phosphate release) with saturating FN2 at a 2.5-fold molar excess, against MukF (% of maximum ATPase) (MukF FN2 (E. coli) [3]) | MukB ATPase (steady state, phosphate release) with saturating FC2 at a 2.5-fold molar excess, against MukF (MukF FC2 (E. coli))
1 | B1 | 2 |  |  | 
2 | B2 |  | 9 to 26 nM | 33 | 60
